According to article PMC4072508, “Genome-Wide Prediction and Validation of Peptides That Bind Human Prosurvival Bcl-2 Proteins” (PLoS Computational Biology, 2014):

T1: Mcl-1, Q07820
T1 chain: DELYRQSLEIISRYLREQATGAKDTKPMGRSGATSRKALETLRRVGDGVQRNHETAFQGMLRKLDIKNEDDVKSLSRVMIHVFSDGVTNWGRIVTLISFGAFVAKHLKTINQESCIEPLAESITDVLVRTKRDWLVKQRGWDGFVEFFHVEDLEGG

B1: DAGLB (peptide)
chain: EVQDRLAHKGISQAARYVYQRLINDG
B2: KIT (peptide)
chain: EGEEFTVTCTIKDVSSSVYSTWKREN
B3: PRKG1 (peptide)
chain: RDSFKHLIGGLDDVSNKAYEDAEAKA
B4: CLEC12A (peptide)
chain: SNKIRNLSTTLQTIATKLCRELYSKE
B5: BFSP1 (peptide)
chain: AYKTVEVVESIEKISTESIQTYEETA
B6: NXF2 (peptide)
chain: FVQDASAASALKDVSYKIYDDENQKI
B7: NCAPD2 (peptide)
chain: EGPEVICAQILQGCAKQALEKLEEKR
B8: SNTG2 (peptide)
chain: NATHEEVVHLDRNAGDEVTITVEYLR
B9: GLDC (peptide)
chain: HNATLILSEGLKRAGHQLQHDLFFDT
B10: TDRD6 (peptide)
chain: GFKTTVYVSHINDLSDFYVQLIEDEA
B11: BBC3 (peptide)
chain: EQWAREIGAQLRRMADDLNAQYERRR
B12: GON4L (peptide)
chain: LLLPKGVVLKLKPVATRFPRKAWRQK
B13: IPO9 (peptide)
chain: AFVGRLVSTLISKAGRELGENLDQIL
B14: PCDHB13 (peptide)
chain: TGVNGEISYSLFQASEEIGKTFKINP
B15: INTS5 (peptide)
chain: VPKIASVVGILGHLASRHGDSIRREL
B16: APOB (peptide)
chain: CVQSTKPSLMIQKAAIQALRKMEPKD
B17: DEPDC5 (peptide)
chain: LFIPLNISCLLKEGSEHLFDSFEPET
B18: GOLGA5 (peptide)
chain: YGKVRKAASSIDQFSIRLGIFLRRYP
B19: SCAND3 (peptide)
chain: PLSNDTIARRIQELANDMEDQLIEQI
B20: MAGEE1 (peptide)
chain: KEYRNQFPEILRRAAAHLECIFRFEL
B21: TXNDC11 (peptide)
chain: TRELQELARKDQELADASENLLTENT
B22: GALNT10 (peptide)
chain: VPAGVSLARNLKRVAEVWMDEYAEYI
B23: HERC2 (peptide)
chain: RNIASQTVARLKDVARRISSCLDFEQ
B24: C19orf51 (peptide)
chain: EITQHNVTELLRDVAAWGRARATGGD
B25: GINS1 (peptide)
chain: FEVDDGTSVLLKKNSQHFLPRWKCEQ
B26: GCN1L1 (peptide)
chain: MAADTQVSETLKRFAGKVTTASVKER
B27: MIB1 (peptide)
chain: FGDEGAVIEVLHRGSADLNARNKRRQ
B28: MYH9 (peptide)
chain: DPLNDNIATLLHQSSDKFVSELWKDV
B29: SEMA6B (peptide)
chain: IPGSAVCAFDLTQVAAVFEGRFREQK
B30: DNM2 (peptide)
chain: DLVVSELATVIKKCAEKLSSYPRLRE
B31: NTRK1 (peptide)
chain: QDKMLVAVKALKEASESARQDFQREA
B32: PCNA (peptide)
chain: SGEFARICRDLSHILDAVVISCAKDG
B33: CDT1 (peptide)
chain: ATPPAASPSALKGVSQDLLERIRAKE
B34: NOTCH3 (peptide)
chain: EELLRSSADFLQRLSAILRTSLRFRL
B35: SPG20 (peptide)
chain: VKGAEITGKAIQKGASKLRERIQPEE
B36: EXOC7 (peptide)
chain: TSMETIGAKALEDFADNIKNDPDKEY
B37: MMAB (peptide)
chain: GETDANVAKFLNRLSDYLFTLARYAA
B38: BAZ2A (peptide)
chain: GKRMKQFPEVIKYLSRNVVHSVRREH
B39: GALNTL6 (peptide)
chain: VPSGTSLARNLKRVAETWMDEFAEYI
B40: PGBD1 (peptide)
chain: KKDKARVSELLQGLSFSGDSDVEKDN
B41: GRIK5 (peptide)
chain: ERFEGFCVDMLRELAELLRFRYRLRL
B42: TACC2 (peptide)
chain: LEGFRKNEEVLKRCAQEYLSRVKKEE
B43: FASTK (peptide)
chain: KVRAHHYSVALRRLGQLLGSRPRPPP
B44: RASAL2 (peptide)
chain: SRTLTLIAKVIQNLANFAKFGNKEEY
B45: NXF5 (peptide)
chain: FVQVASAASALKDVSYKIYDDENQKI
B46: ZFPM2 (peptide)
chain: ITMVPQASEILAKMSELVHRRLRHGS
B47: VPS8 (peptide)
chain: AIVADRMVEILFHYADRALKKCPDQG
B48: GAPVD1 (peptide)
chain: RFNLMQVGRLLQQLAMTGSEEGDPRT
B49: CLINT1 (peptide)
chain: YKSLLLLAYLIRNGSERVVTSAREHI
B50: NWD1 (peptide)
chain: NPKNKTHACYLKELGEQFVVRANHQV
B51: HEATR6 (peptide)
chain: PSIQLHGAKLLEELGTGLIQQYKPDS
B52: CCT5 (peptide)
chain: EQAARVAIEHLDKISDSVLVDIKDTE
B53: CD2BP2 (peptide)
chain: LLPRETVAGALRRLGARGGGKGRKGP
B54: NXF3 (peptide)
chain: FVENASIAYALKNVSGKIWDEDNEKI

Molecular target: T1, Mcl-1, Q07820
Experiment: peptide SPOT array, c-Myc-tagged receptor at 1 uM or 100 nM, anti-c-Myc-Cy3
For B1, the SPOT signal as a fraction of Bim BH3's signal on the same receptor and array was 0.16. B2 gave an SPOT signal as a fraction of Bim BH3's signal on the same receptor and array of 0.02. B3 gave an SPOT signal as a fraction of Bim BH3's signal on the same receptor and array of 0.01. Binder B4 has an SPOT signal as a fraction of Bim BH3's signal on the same receptor and array of 0.17. In the case of B5, the SPOT signal as a fraction of Bim BH3's signal on the same receptor and array is reported as 0.01. B6 gave an SPOT signal as a fraction of Bim BH3's signal on the same receptor and array of 0.01. In the case of B7, the SPOT signal as a fraction of Bim BH3's signal on the same receptor and array is reported as 0.02. B8 gave an SPOT signal as a fraction of Bim BH3's signal on the same receptor and array of 0.01. With B9 the SPOT signal as a fraction of Bim BH3's signal on the same receptor and array was 0.02. B10 gave an SPOT signal as a fraction of Bim BH3's signal on the same receptor and array of 0.02. B11 gave an SPOT signal as a fraction of Bim BH3's signal on the same receptor and array of 0.76. In the case of B12, the SPOT signal as a fraction of Bim BH3's signal on the same receptor and array is reported as 0.32. For B13, the SPOT signal as a fraction of Bim BH3's signal on the same receptor and array was 0.03. B14 was tested, and the SPOT signal as a fraction of Bim BH3's signal on the same receptor and array was 0.01. B15 was tested, and the SPOT signal as a fraction of Bim BH3's signal on the same receptor and array was 0.05. B16 was tested, and the SPOT signal as a fraction of Bim BH3's signal on the same receptor and array was 0.09. B17 was tested, and the SPOT signal as a fraction of Bim BH3's signal on the same receptor and array was 0.02. Binder B18 has an SPOT signal as a fraction of Bim BH3's signal on the same receptor and array of 0.29. Binder B19 has an SPOT signal as a fraction of Bim BH3's signal on the same receptor and array of 0.02. Work on B20 yielded an SPOT signal as a fraction of Bim BH3's signal on the same receptor and array of 0.02. For B21, the SPOT signal as a fraction of Bim BH3's signal on the same receptor and array was 0.01. In the case of B22, the SPOT signal as a fraction of Bim BH3's signal on the same receptor and array is reported as 0.02. B23 showed an SPOT signal as a fraction of Bim BH3's signal on the same receptor and array of 0.06. B24 was tested, and the SPOT signal as a fraction of Bim BH3's signal on the same receptor and array was 0.02. In the case of B25, the SPOT signal as a fraction of Bim BH3's signal on the same receptor and array is reported as 0.05. In the case of B26, the SPOT signal as a fraction of Bim BH3's signal on the same receptor and array is reported as 0.11. For B27, the SPOT signal as a fraction of Bim BH3's signal on the same receptor and array was 0.05. With B28 the SPOT signal as a fraction of Bim BH3's signal on the same receptor and array was 0.02. B29 gave an SPOT signal as a fraction of Bim BH3's signal on the same receptor and array of 0.02. Work on B30 yielded an SPOT signal as a fraction of Bim BH3's signal on the same receptor and array of 0.06. Binder B31 has an SPOT signal as a fraction of Bim BH3's signal on the same receptor and array of 0.02. B32 gave an SPOT signal as a fraction of Bim BH3's signal on the same receptor and array of 0.01. For B33, the SPOT signal as a fraction of Bim BH3's signal on the same receptor and array was 0.03. B34 gave an SPOT signal as a fraction of Bim BH3's signal on the same receptor and array of 0.11. Work on B35 yielded an SPOT signal as a fraction of Bim BH3's signal on the same receptor and array of 0.02. Binder B36 has an SPOT signal as a fraction of Bim BH3's signal on the same receptor and array of 0.01. With B37 the SPOT signal as a fraction of Bim BH3's signal on the same receptor and array was 0.02. B38 gave an SPOT signal as a fraction of Bim BH3's signal on the same receptor and array of 0.29. B39 showed an SPOT signal as a fraction of Bim BH3's signal on the same receptor and array of 0.02. With B40 the SPOT signal as a fraction of Bim BH3's signal on the same receptor and array was 0.01. Binder B41 has an SPOT signal as a fraction of Bim BH3's signal on the same receptor and array of 0.11. Work on B42 yielded an SPOT signal as a fraction of Bim BH3's signal on the same receptor and array of 0.04. In the case of B43, the SPOT signal as a fraction of Bim BH3's signal on the same receptor and array is reported as 0.14. B44 gave an SPOT signal as a fraction of Bim BH3's signal on the same receptor and array of 0.08. Work on B45 yielded an SPOT signal as a fraction of Bim BH3's signal on the same receptor and array of 0.02. In the case of B46, the SPOT signal as a fraction of Bim BH3's signal on the same receptor and array is reported as 0.1. Work on B47 yielded an SPOT signal as a fraction of Bim BH3's signal on the same receptor and array of 0.02. B48 gave an SPOT signal as a fraction of Bim BH3's signal on the same receptor and array of 0.04. B49 showed an SPOT signal as a fraction of Bim BH3's signal on the same receptor and array of 0.05. In the case of B50, the SPOT signal as a fraction of Bim BH3's signal on the same receptor and array is reported as 0.04. In the case of B51, the SPOT signal as a fraction of Bim BH3's signal on the same receptor and array is reported as 0.01. B52 showed an SPOT signal as a fraction of Bim BH3's signal on the same receptor and array of 0.01. Work on B53 yielded an SPOT signal as a fraction of Bim BH3's signal on the same receptor and array of 0.13. B54 was tested, and the SPOT signal as a fraction of Bim BH3's signal on the same receptor and array was 0.02.
